The text below walks through data of patent US20070178572A1, “Protein crystal structure” (priority 2003, published 2007).

In one data set the test system is H3 20mer peptide. The data set is described as follows: Analytical analysis of histone methylation (HPLC separation and MALDI of reaction products). Format: biochemical, human. Conditions: unmodified peptide and AdoMet, reaction driven essentially to completion. The procedure:
The histone methyltransferase assay for analytical purposes was carried out under slightly different conditions than those described in Example 1.2. For analytical purposes the reaction was performed at 37° C. in 50 mM Tris-HCl, pH 8.0, 100 mM NaCl, 1 mM DTT, with 300 μM AdoMet (Fluka, Switzerland), 100 μM H3 20mer peptide ([…]), and with 1.5 μM enzyme. At desired time intervals an aliquot of the reaction was removed and quenched in 8 M urea and acidified with glacial acetic acid. The reaction products were separated by reverse phase HPLC (Jasco (UK) Ltd) on a Zorbax 300SB-C18 column (Rockland Technologies, Inc. USA) using a gradient from 0 to 40% acetonitrile in the presence of 0.05% trifluoroacetic acid at 55° C. Fractions from the peptide peak were analysed using a Reflex III MALDI time-of-flight mass spectrometer (Bruker Daltonik, GmbH, Germany) to obtain positive ion mass spectra.
The present inventors have further analysed the methylation reaction. Reaction mixtures were set up with unmodified peptide and AdoMet and conditions found where the reaction was driven essentially to completion. […] The reason for SET 7/9 acting as a mono-methyltransferase is readily apparent from the crystal structure now presented. The peptide used for crystallization was synthesised using mono-methylated lysine at position 4. […]

In data set [1] the test system is histone H3 peptide. Conditions: previously reported (Wilson et al, 2002); cited from earlier work.
In data set [2] the test system is histone H3 peptide. The data set is described as follows: HMTase activity measurements (histone methyltransferase assay, [methyl-3H] AdoMet, scintillation counting). Format: biochemical, human. The procedure: The methyltransferase activity of SET7/9 and the various mutant constructs described in the text were determined in a reaction volume of 20 μl containing 3 μM AdoMet supplemented with [methyl-^3H] AdoMet (4 μCi) (Amersham Biosciences, UK) and […] purified methylase in reaction buffer (50 mM Tris pH 8.5, 100 mm NaCl, 1 mM EDTA, 1 mM DTT) with 50 μM histone peptide (see below). Following incubation at 37° C. for 60 min the reaction was vacuum blotted onto membrane (Hybond-C, Amersham Biosciences, UK) washed and activity measured by scintillation counting.

Where two headings read alike, the source gives them in different places.

B1: SET 7/9: human enzyme that specifically methylates lysine-4 of histone H3 (protein, UniProt Q8WTS6 1-366, looked up)
Histone-lysine …: MDSDDEMVEEAVEGHLDDDGLPHGFCTVTYSSTDRFEGNFVHGEKNGRGKFFFFDGSTLEGYYVDDALQGQGVYTYEDGGVLQGTYVDGELNGPAQEYDTDGRLIFKGQYKDNIRHGVCWIYYPDGGSLVGEVNEDGEMTGEKIAYVYPDERTALYGKFIDGEMIEGKLATLMSTEEGRPHFELMPGNSVYHFDKSTSSCISTNALLPDPYESERVYVAESLISSAGEGLFSKVAVGPNTVMSFYNGVRITHQEVDSRDWALNGNTLSLDEETVIDVPEPYNHVSKYCASLGHKANHSFTPNCIYDMFVHPRFGPIKCIRTLRAVEADEELTVAYGYDHSPPGKSGPEAPEWYQVELKAFQATQQK
Take B1: the “methylation state of reaction product” value in the data set on H3 20mer peptide is given as “only mono-methylated peptide”.

B2: Y245>A: SET 7/9 histone methyltransferase with point mutation of Tyr-245 to alanine (protein, UniProt Q8WTS6 1-366, looked up, variant Y245A)
Histone-lysine …: MDSDDEMVEEAVEGHLDDDGLPHGFCTVTYSSTDRFEGNFVHGEKNGRGKFFFFDGSTLEGYYVDDALQGQGVYTYEDGGVLQGTYVDGELNGPAQEYDTDGRLIFKGQYKDNIRHGVCWIYYPDGGSLVGEVNEDGEMTGEKIAYVYPDERTALYGKFIDGEMIEGKLATLMSTEEGRPHFELMPGNSVYHFDKSTSSCISTNALLPDPYESERVYVAESLISSAGEGLFSKVAVGPNTVMSFANGVRITHQEVDSRDWALNGNTLSLDEETVIDVPEPYNHVSKYCASLGHKANHSFTPNCIYDMFVHPRFGPIKCIRTLRAVEADEELTVAYGYDHSPPGKSGPEAPEWYQVELKAFQATQQK
For the molecule B2, the HMTase activity result is “dramatic reduction in HMTase activity” with histone H3 peptide [1], “substantial activity” in the data set on histone H3 peptide [2] (mono-methylated Lys-4 substrate) and “greatly reduced activity” in the data set on histone H3 peptide [2] (unmodified lysine substrate).
